Drawing on patent EP2210617A1, this text covers fold higher NTN binding (relative GFRα2 binding activity, wt construct set to 1) for two molecules.

The target in assay [1] is GFRα2/Fc fusion protein (R&D Systems) (human). As to the kind of experiment: GFRα2 ELISA (GFRα2/Fc on anti-Fc plate, Ret-AP detection) on conditioned medium of transfected HEK293 cells; reference is medium of wt NTN transfected cells.
The target is the same in assay [2]. The assay is described as follows: GFRα2 ELISA (GFRα2/Fc on anti-Fc plate, Ret-AP detection) on conditioned medium of transfected ARPE-19 cells; reference is medium of wt NTN transfected cells.
For assay [3] the target is unchanged. As to the kind of experiment: GFRα2 ELISA (GFRα2/Fc on anti-Fc plate, Ret-AP detection) on conditioned medium of transfected HiB5 cells; reference is medium of wt NTN transfected cells. Background: In an ELISA, binding on a coated surface is turned into a signal by an enzyme label.
The target is the same in assay [4]. The assay is described as follows: GFRα2 ELISA (GFRα2/Fc on anti-Fc plate, Ret-AP detection) on conditioned medium of transfected CHO cells; reference is medium of wt NTN transfected cells.

B1: mature human Neurturin secreted from cells transfected with the dpro-NTN construct (deltapro102NTN) (ligand)
chain: ARLGARPCGLRELEVRVSELGLGYASDETVLFRYCAGACEAAARVYDLGLRRLRQRRRLRRERVRAQPCCRPTAYEDEVSFLDAHSRYHTVHELSARECACV
With B1, the fold higher NTN binding (relative GFRα2 binding activity, wt construct set to 1) came out at 90 fold in assay [1], 117 fold in assay [2], 7.5 fold in assay [3] and 4.1 fold in assay [4].

B2: mature human Neurturin secreted from cells transfected with the IgSP-NTN construct (IgSP-102NTN) (ligand)
chain: B1 chain
For the molecule B2, the fold higher NTN binding (relative GFRα2 binding activity, wt construct set to 1) was 278 fold in assay [1], 771 fold in assay [2], 162 fold in assay [3] and 66 fold in assay [4].
